Experimental data reported in US20060121042A1 (AstraZeneca / MedImmune, published 2006).

T1: rmEph B3 (mouse, UniProt P54754)
T1 sequence (receptor, looked up): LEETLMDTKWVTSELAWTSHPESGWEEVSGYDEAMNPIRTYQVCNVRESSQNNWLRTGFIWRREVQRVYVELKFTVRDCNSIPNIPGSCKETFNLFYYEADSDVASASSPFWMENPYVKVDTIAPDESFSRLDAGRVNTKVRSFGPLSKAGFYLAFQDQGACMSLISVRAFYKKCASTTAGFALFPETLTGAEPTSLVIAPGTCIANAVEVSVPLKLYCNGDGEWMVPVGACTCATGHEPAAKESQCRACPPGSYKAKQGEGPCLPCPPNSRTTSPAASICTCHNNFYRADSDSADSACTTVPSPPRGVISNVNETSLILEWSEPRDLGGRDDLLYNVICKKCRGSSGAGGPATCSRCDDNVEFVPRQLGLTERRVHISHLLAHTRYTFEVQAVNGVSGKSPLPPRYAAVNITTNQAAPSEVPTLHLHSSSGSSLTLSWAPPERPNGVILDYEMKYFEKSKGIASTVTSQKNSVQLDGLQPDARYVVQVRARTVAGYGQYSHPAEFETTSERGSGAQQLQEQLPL

T2: rmEph B2 (mouse, UniProt P54763)
T2 sequence (receptor, looked up): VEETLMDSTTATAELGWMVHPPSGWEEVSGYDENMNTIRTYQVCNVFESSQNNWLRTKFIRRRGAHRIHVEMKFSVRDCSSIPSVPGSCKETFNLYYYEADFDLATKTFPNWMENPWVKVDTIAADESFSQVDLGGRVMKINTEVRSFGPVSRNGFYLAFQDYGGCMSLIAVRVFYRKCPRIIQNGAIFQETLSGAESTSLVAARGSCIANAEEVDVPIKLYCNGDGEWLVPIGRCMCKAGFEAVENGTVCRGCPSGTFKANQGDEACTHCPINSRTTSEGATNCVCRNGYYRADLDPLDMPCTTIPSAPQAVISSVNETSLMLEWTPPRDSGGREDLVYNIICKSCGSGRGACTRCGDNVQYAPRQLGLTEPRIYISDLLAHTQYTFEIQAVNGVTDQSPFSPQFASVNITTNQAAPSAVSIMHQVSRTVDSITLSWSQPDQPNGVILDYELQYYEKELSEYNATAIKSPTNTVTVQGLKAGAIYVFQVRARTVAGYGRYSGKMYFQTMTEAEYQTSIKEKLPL

T3: rrEphB1 (rat, UniProt P09759)
T3 sequence (receptor, looked up): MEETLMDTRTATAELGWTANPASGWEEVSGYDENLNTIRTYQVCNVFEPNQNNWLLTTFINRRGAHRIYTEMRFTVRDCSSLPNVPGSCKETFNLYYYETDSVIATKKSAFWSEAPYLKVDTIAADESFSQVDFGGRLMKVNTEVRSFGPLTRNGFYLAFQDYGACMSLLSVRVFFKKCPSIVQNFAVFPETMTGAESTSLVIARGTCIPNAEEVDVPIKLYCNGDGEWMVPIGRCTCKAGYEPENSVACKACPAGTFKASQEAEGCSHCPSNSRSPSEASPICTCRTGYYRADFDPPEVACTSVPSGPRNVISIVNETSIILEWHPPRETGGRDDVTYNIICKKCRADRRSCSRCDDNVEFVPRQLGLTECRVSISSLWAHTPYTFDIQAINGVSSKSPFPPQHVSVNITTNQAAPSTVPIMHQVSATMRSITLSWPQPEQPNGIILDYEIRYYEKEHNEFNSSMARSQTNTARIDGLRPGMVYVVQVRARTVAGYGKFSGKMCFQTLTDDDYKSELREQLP

T4: mEph A3 (mouse, UniProt P29319)
T4 sequence (receptor, looked up): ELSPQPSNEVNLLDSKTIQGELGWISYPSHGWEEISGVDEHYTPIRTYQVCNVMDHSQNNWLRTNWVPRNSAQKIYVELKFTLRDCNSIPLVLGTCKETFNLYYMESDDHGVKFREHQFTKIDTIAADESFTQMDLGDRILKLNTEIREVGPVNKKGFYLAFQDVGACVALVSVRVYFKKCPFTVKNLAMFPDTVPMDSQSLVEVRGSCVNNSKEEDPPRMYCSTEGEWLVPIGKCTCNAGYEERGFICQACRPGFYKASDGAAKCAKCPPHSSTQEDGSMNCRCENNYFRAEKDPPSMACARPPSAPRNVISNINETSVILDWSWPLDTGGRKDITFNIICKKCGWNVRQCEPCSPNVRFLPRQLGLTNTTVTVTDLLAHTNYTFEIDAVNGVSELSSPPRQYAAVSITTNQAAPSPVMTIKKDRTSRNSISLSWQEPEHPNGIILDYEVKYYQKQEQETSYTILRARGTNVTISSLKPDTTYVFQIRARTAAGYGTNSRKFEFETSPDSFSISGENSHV

T5: mEph A7 (mouse, UniProt Q61772)
T5 sequence (receptor, looked up): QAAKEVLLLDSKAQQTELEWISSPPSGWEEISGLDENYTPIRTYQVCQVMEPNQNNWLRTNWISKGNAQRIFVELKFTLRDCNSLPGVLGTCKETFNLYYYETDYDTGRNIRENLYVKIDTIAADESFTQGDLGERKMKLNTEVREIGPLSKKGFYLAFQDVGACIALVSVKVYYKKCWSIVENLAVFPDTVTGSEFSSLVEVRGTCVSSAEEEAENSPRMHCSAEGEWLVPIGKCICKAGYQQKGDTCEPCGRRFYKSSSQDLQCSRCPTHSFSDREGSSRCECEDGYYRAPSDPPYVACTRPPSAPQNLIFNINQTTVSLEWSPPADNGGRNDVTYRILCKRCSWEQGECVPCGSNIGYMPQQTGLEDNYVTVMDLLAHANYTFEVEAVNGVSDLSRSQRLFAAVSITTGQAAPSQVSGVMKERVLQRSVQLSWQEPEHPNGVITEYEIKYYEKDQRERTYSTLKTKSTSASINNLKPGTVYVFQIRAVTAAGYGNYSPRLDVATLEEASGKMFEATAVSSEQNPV


Legend:
Assay in all cases: ELISA
rmEph B3 = target: T1, rmEph B3
rmEph B2 = target: T2, rmEph B2
rrEphB1 = target: T3, rrEphB1
mEph A4 = mEph A4 (mouse, UniProt Q03137)
mEph A3 = target: T4, mEph A3
[1] = target: T6, human EphA4 (construct not given) (human, UniProt P54764 20-547, limits assumed)
T6 construct: also called EphA4 receptor

mEph A7 = target: T5, mEph A7
hEphA2 = target: T7, hEphA2 (human, UniProt P29317)
T7 construct: also called human EphA2

mEph A2 = mEph A2 (mouse, UniProt Q03145)
mEph A2, sequence (Q03145 26-535 limits assumed): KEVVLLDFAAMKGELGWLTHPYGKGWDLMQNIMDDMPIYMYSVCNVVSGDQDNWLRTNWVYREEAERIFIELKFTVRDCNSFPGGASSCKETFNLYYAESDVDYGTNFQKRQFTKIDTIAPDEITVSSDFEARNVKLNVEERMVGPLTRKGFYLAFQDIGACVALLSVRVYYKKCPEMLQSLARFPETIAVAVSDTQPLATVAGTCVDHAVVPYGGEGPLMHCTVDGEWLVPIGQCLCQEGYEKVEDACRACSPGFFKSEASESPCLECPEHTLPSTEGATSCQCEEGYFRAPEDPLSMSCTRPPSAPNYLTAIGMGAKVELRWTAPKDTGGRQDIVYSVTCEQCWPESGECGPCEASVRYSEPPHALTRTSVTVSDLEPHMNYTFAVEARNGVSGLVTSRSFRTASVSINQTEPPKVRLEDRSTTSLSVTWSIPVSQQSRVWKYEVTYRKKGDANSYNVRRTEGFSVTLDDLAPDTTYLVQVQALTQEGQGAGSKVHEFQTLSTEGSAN

mEph A4, sequence (Q03137 20-547 limits assumed): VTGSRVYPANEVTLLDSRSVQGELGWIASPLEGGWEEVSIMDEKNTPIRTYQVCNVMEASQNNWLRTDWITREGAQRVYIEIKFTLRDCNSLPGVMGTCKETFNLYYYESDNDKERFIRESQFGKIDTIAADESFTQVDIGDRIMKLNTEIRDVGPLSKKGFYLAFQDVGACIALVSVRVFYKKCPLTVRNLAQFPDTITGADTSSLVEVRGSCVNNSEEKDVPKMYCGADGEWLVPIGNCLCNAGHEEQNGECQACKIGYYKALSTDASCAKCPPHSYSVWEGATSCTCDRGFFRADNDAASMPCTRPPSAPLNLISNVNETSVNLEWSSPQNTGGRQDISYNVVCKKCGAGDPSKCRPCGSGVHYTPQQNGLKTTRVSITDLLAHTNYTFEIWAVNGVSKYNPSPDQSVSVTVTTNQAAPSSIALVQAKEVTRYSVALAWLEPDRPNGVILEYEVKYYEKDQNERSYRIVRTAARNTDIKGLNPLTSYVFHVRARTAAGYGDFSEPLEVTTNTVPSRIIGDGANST
T7 sequence (P29317 25-534 limits assumed): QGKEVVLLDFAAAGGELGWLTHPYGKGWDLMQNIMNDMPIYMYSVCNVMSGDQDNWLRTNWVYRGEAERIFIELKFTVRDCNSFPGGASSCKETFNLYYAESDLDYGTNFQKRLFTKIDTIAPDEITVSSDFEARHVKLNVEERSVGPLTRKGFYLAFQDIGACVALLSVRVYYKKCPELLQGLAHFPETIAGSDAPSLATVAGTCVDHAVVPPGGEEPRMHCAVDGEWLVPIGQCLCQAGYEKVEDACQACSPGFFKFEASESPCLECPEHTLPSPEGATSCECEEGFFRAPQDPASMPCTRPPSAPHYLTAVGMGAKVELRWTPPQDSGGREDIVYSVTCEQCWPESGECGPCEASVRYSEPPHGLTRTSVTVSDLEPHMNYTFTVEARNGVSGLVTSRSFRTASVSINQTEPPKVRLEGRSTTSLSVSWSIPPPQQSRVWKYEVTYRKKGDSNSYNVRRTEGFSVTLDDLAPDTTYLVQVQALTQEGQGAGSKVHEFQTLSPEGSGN
T6 sequence (P54764 20-547 limits assumed): as the sequence (Q03137 20-547 limits assumed) above, with A59P, S121N, G124V, Q250R, N251S, S270T, R378K, S406N counted along it

ELISA O.D. value (rmEph B3) | ELISA O.D. value (rmEph B2) | ELISA O.D. value (rrEphB1) | ELISA O.D. value (mEph A4) | ELISA O.D. value (mEph A3) | ELISA O.D. value [1] | ELISA O.D. value (mEph A7) | binding result (rmEph B3) | binding result (rrEphB1) | ELISA O.D. value (hEphA2) | ELISA O.D. value (mEph A2) | Binder
0.377 | 0.264 | 0.823 | 0.253 | 0.116 | 0.267 | 0.132 |  |  |  |  | GEA10-C12 (antibody, V domains shown) VH: QVQLQESGPGLVKPSGTLSLTCAVSGGSISSSNWWSWVRQPPGKGLEWIGEIYHSGSTNYNPSLKSRVTISVDKSKNQFSLKLSSVTAADTAVYYCARGGIAAAGYWGLGYNWFDPWGQGTLVTVSS VL: QSVLTQPPSVSGAPGQRVTISCTGSSSNIGAGYDVHWYQQLPGTAPKLLIYGNSNRPSGVPDRFSGSKSGTSASLAITGLQAEDEADYYCQSYDNSLSGSVVFGGGTKLTVL
 | 0.535 |  |  |  |  |  | binds | binds | 0.783 | 0.792 | human Anti-Eph Monoclonal Antibody GEA44 (antibody, V domains shown, also called mAb GEA44; parental mAb GEA44) VH: QVQLLQSGAEVKKPGASVKVPCKASGYTFTSYAMSWVRQAPGQGLEWMGWINTNTGNPTYAQGFTGRFVFSLDTSVSTAYLQISSLKAEDTAVYYCARVRTTVYGDGMDVWGQGTLVTVSS VL: EIVLTQSPATLSVSPGERATLSCRASQSVSSNLAWYQQKPGQAPRLLIYGASTRATGIPDRFSASGSGTDFTLTISRVEPEDFAVYYCQQYGSSWTFGQGTKVEIK
